Experimental data published in article doi:10.1101/2022.05.18.492403.

Target: recombinant C-terminal StrepII-tagged SbtB from Synechocystis sp. PCC 6803 (ScSbtB), wildtype (Synechocystis sp. PCC 6803), P73954
Assay: crystal structure
Settings: remark: other sources report otherwise

B1: recombinant C-terminal StrepII-tagged SbtB from Synechocystis sp. PCC 6803 (ScSbtB), wildtype, P73954 1-110 (natural protein)
chain: MAKPANKLVIVTEKILLKKIAKIIDESGAKGYTVMNTGGKGSRNVRSSGQPNTSDIEANIKFEILTETREMAEEIADRVAVKYFNDYAGIIYICSAEVLYGHTFCGPEGC
stoichiometry N: 3
